Drawing on paper PMC6173284, this text covers stoichiometry N for 1 substance.

Broadly, the stoichiometry N is a count of units in the complex or per binding partner.

The experiment addresses His-tagged Vps5 dimer from Chaetomium thermophilum (Chaetomium thermophilum). In words: SEC-MALS. For orientation: In gel filtration, larger molecules generally elute earlier.

“His-tagged Vps5 dimer from Chaetomium thermophilum (natural protein)” showed a stoichiometry N of 2.
